Patent US20210364527A1 (QUANTUM SI, published 2021)
Like-named read-outs stand apart in the source and are kept apart here.

T1: IA peptide IAKLDEESILKQK (XAKLDEESILKQK, X = I)
T1 construct: Immobilized on the biolayer interferometry sensor
T1 peptide: IAKLDEESILKQK

T2: VA peptide VAKLDEESILKQK (XAKLDEESILKQK, X = V)
T2 construct: Immobilized on the biolayer interferometry sensor
T2 peptide: VAKLDEESILKQK

T3: LA peptide LAKLDEESILKQK (XAKLDEESILKQK, X = L)
T3 construct: Immobilized on the biolayer interferometry sensor
T3 peptide: LAKLDEESILKQK

T4: F peptide FAKLDEESILKQK (XAKLDEESILKQK, X = F)
T4 construct: Immobilized on the biolayer interferometry sensor
T4 peptide: FAKLDEESILKQK

T5: W peptide WAKLDEESILKQK (XAKLDEESILKQK, X = W)
T5 construct: Immobilized on the biolayer interferometry sensor
T5 peptide: WAKLDEESILKQK


Experiments:
Assay in all cases: BLI heatmap
[1] = target: T1, IA peptide IAKLDEESILKQK …
[2] = target: T2, VA peptide VAKLDEESILKQK …
[3] = target: T3, LA peptide LAKLDEESILKQK …
[4] = target: T4, F peptide FAKLDEESILKQK (XAKLDEESILKQK, …)
[5] = target: T1, IA peptide IAKLDEESILKQK …
[6] = target: T2, VA peptide VAKLDEESILKQK …
[7] = target: T5, W peptide WAKLDEESILKQK (XAKLDEESILKQK, …)
[8] = target: T3, LA peptide LAKLDEESILKQK …
[9] = target: T4, F peptide FAKLDEESILKQK (XAKLDEESILKQK, …)

Binder	binding result [1]	binding result [2]	binding result [3]	binding result [4]	binding result [5]	binding result [6]	binding result [7]	binding result [8]	binding result [9]
PS573 (other) MSQTPVIEETTVKDPVKTGGPWKVVLWDDDEHTYDYVIEMLMEVCVMTMEQAFHHAVEVDTQKKTVVYSGEFEHAEHIQELILEYGPDPRMAVSKGSMSATLEKS	binds	binds	binds	no binding	–	–	–	–	–
PS388 (other) MVTTLSADVYGMATAPTVAPERSNQVVRKTYPNYKVIVLNDDFNTFQHVAECLMKYIPGMSSDRAWDLTNQVHYEGQAIVWVGPQEPAELYHQQLRRAGLTMAPLEAA	–	–	–	–	no binding	no binding	no binding	binds	–
PS554 (other) MSDSASATVEVQADPPADATARSQPTPARSTGSKPKRQPRYHVVLWNDDDHTYEYVIAMLRRLFGIEPEKGFRIAEEVDQSGRAVVLTTTREHAELKRDQIHAFGADRLLARSKGSMSASIEPEA	binds	binds	binds	no binding	–	–	–	–	–
PS424 (other) MSVETIEKRSTTRKLAPQYRVLLHNDDYNSMEYVVQVLMTSVPSITQPQAVNIMMEAHNSGLALVITCAQEHAEFYCETLKGHGLSSTIEPD	–	–	–	–	no binding	no binding	binds	no binding	binds
PS374 (other) MRWEDPLAAEPVTPGVAPVVEEETDAAVETPWRVILYDDDIHTFEEVILQLMKATGCTPEQGERHAWTVHTRGKDCVYQGDFFDCFRVQGVLREIQLVTEIEG	–	–	–	–	no binding	no binding	binds	–	binds
PS552 (other) MSKTSTLPEVESESAQKLKYQPPYHVILLNDDDHSYVYVITMLKELFGHPEQKGYQLADAVDKQGRAIVFTTTREHAELKQEQIHAYGPDPTIPRCKGAMTAVIEPAE	binds	binds	binds	no binding	–	–	–	–	–
PS547 (other) MGFPTDFRQSIEISTPLGSQQPRFSNASSEPALADPVLVINPRIQPRYHVILLNDDDHTYRYVIEMMLIVFGHPPEKGFLIAKEVDKAGRAICLTTSLEHAEFKQEQVHAYGADPYFGPKCKGSMTAVLEPAE	–	no binding	–	no binding	–	–	–	–	–
PS569 (other) MYSKNQIKIYCSEDDKGQTATPLLEKKPKFAPLYHVILWDDNTHTYEYVIKLLMSLFRMTFEKAYQHTLEVDKKGRTICITTHLEKAELKQEQISNFGPDILMQNSKGPMSATIEPAN	no binding	no binding	–	no binding	–	–	–	–	–
PS553 (other) MPASASAVTEPPVSLPEAAAPRPKDRPKRQPRYHVILWNDDDHTYQYVVAMLRQLFGHPPEKGFTLAKQVDKDGRVVVLTTTKEHAELKRDQIHAFGADRLLARSKGSMSASIEPEASTG	binds	binds	binds	no binding	–	–	–	–	–
PS559 (other) MNQAAISPNPDIKPNPSTHKKRASQRQPRYHVILWNDNDHTYHYVVTMLQKLFGHPPRTGIKMATEVDKKGKVIVLTTSREHAELKRDQIHAFGADKLIRRSKGAMAASIEPES	binds	binds	binds	–	–	–	–	–	–
PS555 (other) MADSAQTGVAEPIQETLRRRKLRDDRRPKRQPPYHVILWNDNDHTYAYVVVMLMQLFGYPAEKGYQLASEVDTQGRAVVLTTTKEHAELKRDQIHAYGKDGLIEKCKGSMWATIEPAPGE	binds	no binding	binds	–	–	–	–	–	–
PS577 (other) MSASSSQPGTTTKPDLDIQPRLLPPFHVILENDEFHSMEFVIDTLRKVLGVSIERAYQLMMTAHESGQAIIWTGPKEVAELKYEQVIGFHEKRSDGRDLGPLGCRIEPAV	no binding	no binding	no binding	binds	–	–	–	–	–
PS571 (other) MTSSGASQPSILEETERKPRLSDGPWKVVLWDDDFHTYEYVIEMLMDVCQMPWEKAFQHAVEVDTRKKTIVFFGELEHAEFVHERILNYGPDPRMGTSKGSMTATLEK	binds	binds	binds	no binding	–	–	–	–	–
PS398 (other) MPLKAQNRSIVGRRDEWPPPTTQSSSETKSESKRVSDTGADTKRKTKTVPKVEKPRLYKVILVNDDYTPREFVLVVLKAVFRMSEDQGYKVMITAHQKGSCVVAVYTRDIAETKAKEAVDLAKEIGFPLMFRTEPEE	–	–	–	–	no binding	no binding	binds	no binding	binds
PS390 (other) MLSIAAVTEAPSKGVQTADPKTVRKPYPNYKVIVLNDDFNTFQHVSSCLLKYIPGMSEARAWELTNQVHFEGLAVVWVGPQEQAELYYAQLKNAGLTMAPPEPA	–	–	–	–	no binding	no binding	no binding	binds	binds
PS389 (other) MLNSAAFKAASASPVIAPERSGQVTQKPYPTYKVIVLNDDFNTFQHVHDCLVKYIPGMTSDRAWQLTHQVHNDGQAIVWVGPQEQAELYHQQLSRAGLTMAPIEAA	–	–	–	–	no binding	no binding	no binding	binds	–
PS568 (other) MTTPSLPTRETEVEERTEVEPERLYHLVLLDDDQHSYQYVIEMLASIFGYGSEKAWTLARIVDTEGRAILETASHAQCERHQSQIHAYGADSRIPTSVGSMSAVIEEAGTPPQT	binds	binds	binds	–	–	–	–	–	–
PS563 (other) MSSRSATAYPEVEDDTSDQLQPLYHVILLNDEDHTYDYVIEMLQKIFGFPESKAFSHAVEVDTKGTTILLTCDLEQAERKRDLIHSYGPDWRLPRSLGSMAAVVEPAAG	binds	binds	binds	no binding	–	–	–	–	–
PS423 (other) MAPTPAGAAVLDKQQQRRHKHASRYRVLLHNDPVNTMEYVVESLRQVVPQLSEQDAIAVMVEAHNTGVGLVIVCDIEPAEFYCEQLKTKGLTSSIEPED	–	–	–	–	no binding	no binding	binds	no binding	binds
PS397 (other) MSDNEVAPKRKTRVKPKLERPRLYKVILVNDDYTPRDFVVMVLKAIFRMSEEAGYRVMMTAHKLGTSVVVVCARDIAETKAKEATDLGKEAGFPLMFTTEPEE	–	–	–	–	no binding	no binding	binds	no binding	binds
PS572 (other) MSSEELSLQTRPKRQPPFGVILHNDDLNSFDYVIDSIRKVFHYELEKCFQLTLEAHETGRSLLWTGTLEGAELKQELLLSCGPDPIMLDKGGLPLKVTLEELPQ	no binding	no binding	no binding	binds	–	–	–	–	–
PS404 (other) MPVSVTAPQTKTKTKPKVERPKLYKVILVNDDFTPREFVVRVLKAEFRMSEDQAAKVMMTAHQRGVCVVAVFTRDVAETKATRATDAGRAKGYPLLFTTEPEE	–	–	–	–	no binding	no binding	binds	no binding	binds
PS576 (other) MASTQTPDLNEITEESTKSTGGPWRVVLWDDNEHTYEYVIEMLVEICMMTVEKAFLHAVQVDKEKRTVDFSGELEHAEHVQERILNYGADPRMSNSKGSMSATLER	no binding	no binding	no binding	no binding	–	–	–	–	–
